{"source": "paper PMC8185068", "about": "“Intracellular artificial supramolecules based on de novo designed Y15 peptides” (Nature Communications, 2021)", "proteins": {"B1": {"name": "Y15 peptide (peptide)", "peptide": "YEYKYEYKYEYKYEY", "notes": "de novo designed self-assembling peptide Y15; source: synthetic peptide (Fmoc solid-phase synthesis, RP-HPLC)"}}, "target": "the molecule itself", "test": "thioflavin T fluorescence; synthetic peptides 5-50 µM in PBS, incubated 24 h at 37 °C, then 25 µM thioflavin T; fluorescence spectra"}
{"protein": "B1", "values": [{"measurement": "binding result", "value": "binds"}]}
